Test results from paper PMC11771877 (PLOS Pathogens, 2025).

What was measured:
Test in all cases: pull-down
Conditions in all cases: both partners purified
[1] = molecular target: original purified His-tagged N protein (SARS-CoV-2, UniProt P0DTC9 1-419)
[2] = molecular target: R203M and D377Y mutant N protein, His-tagged (SARS-CoV-2, UniProt P0DTC9 1-419, R203M | D377Y)
[3] = molecular target: Omicron mutant N protein, His-tagged (SARS-CoV-2, UniProt P0DTC9 1-419, P13L | RG203/204KR)

Measured: binding result

B1: purified RIG-I-GST protein (natural protein)
chain: MTTEQRRSLQAFQDYIRKTLDPTYILSYMAPWFREEEVQYIQAEKNNKGPMEAATLFLKFLLELQEEGWFRGFLDALDHAGYSGLYEAIESWDFKKIEKLEEYRLLLKRLQPEFKTRIIPTDIISDLSECLINQECEEILQICSTKGMMAGAEKLVECLLRSDKENWPKTLKLALEKERNKFSELWIVEKGIKDVETEDLEDKMETSDIQIFYQEDPECQNLSENSCPPSEVSDTNLYSPFKPRNYQLELALPAMKGKNTIICAPTGCGKTFVSLLICEHHLKKFPQGQKGKVVFFANQIPVYEQQKSVFSKYFERHGYRVTGISGATAENVPVEQIVENNDIIILTPQILVNNLKKGTIPSLSIFTLMIFDECHNTSKQHPYNMIMFNYLDQKLGGSSGPLPQVIGLTASVGVGDAKNTDEALDYICKLCASLDASVIATVKHNLEELEQVVYKPQKFFRKVESRISDKFKYIIAQLMRDTESLAKRICKDLENLSQIQNREFGTQKYEQWIVTVQKACMVFQMPDKDEESRICKALFLYTSHLRKYNDALIISEHARMKDALDYLKDFFSNVRAAGFDEIEQDLTQRFEEKLQELESVSRDPSNENPKLEDLCFILQEEYHLNPETITILFVKTRALVDALKNWIEGNPKLSFLKPGILTGRGKTNQNTGMTLPAQKCILDAFKASGDHNILIATSVADEGIDIAQCNLVILYEYVGNVIKMIQTRGRGRARGSKCFLLTSNAGVIEKEQINMYKEKMMNDSILRLQTWDEAVFREKILHIQTHEKFIRDSQEKPKPVPDKENKKLLCRKCKALACYTADVRVIEECHYTVLGDAFKECFVSRPHPKPKQFSSFEKRAKIFCARQNCSHDWGIHVKYKTFEIPVIKIESFVVEDIATGVQTLYSKWKDFHFEKIPFDPAEMSK
notes: also called GST-RIG-I; RIG-I protein (labeled with GST tag); source: E. coli BL21, purified (GSH Magnetic Agarose Beads)
binds: all assays above
